Legend:
[1] = molecular target: rat TrkA receptor expressed in transfected HEK293 cells (rat) (UniProt P35739); assay: cell-based or functional assay
[2] = molecular target: recombinant human TrkA protein (human) (UniProt P04629); assay: NGF-blocking ELISA on coated human TrkA, 100 nM btNGF; mAb 0.63 nM
[3] = molecular target: recombinant human TrkA protein (human) (UniProt P04629); assay: NGF-blocking ELISA on coated human TrkA, 100 nM btNGF; mAb 2.5 nM
[4] = molecular target: recombinant human TrkA protein (human) (UniProt P04629); assay: NGF-blocking ELISA on coated human TrkA, 100 nM btNGF; mAb 10 nM
[5] = molecular target: recombinant human TrkA protein (human) (UniProt P04629); assay: NGF-blocking ELISA on coated human TrkA, 100 nM btNGF; mAb 0.16 nM
[6] = molecular target: recombinant human TrkA protein (human) (UniProt P04629); assay: NGF-blocking ELISA on coated human TrkA, 100 nM btNGF; mAb 20 nM
[7] = molecular target: recombinant human TrkA protein (human) (UniProt P04629); assay: NGF-blocking ELISA on coated human TrkA, 100 nM btNGF; mAb 0.08 nM
[8] = molecular target: recombinant human TrkA protein (human) (UniProt P04629); assay: NGF-blocking ELISA on coated human TrkA, 100 nM btNGF; mAb 0.04 nM
[9] = molecular target: recombinant human TrkA protein (human) (UniProt P04629); assay: NGF-blocking ELISA on coated human TrkA, 100 nM btNGF; mAb 1.25 nM
[10] = molecular target: human TrkA receptor expressed in transfected 3T3 fibroblast cells (human) (UniProt P04629); assay: cell-based or functional assay
Sequence of human TrkA receptor expressed in transfected 3T3 fibroblast cells (human) (P04629 33-796): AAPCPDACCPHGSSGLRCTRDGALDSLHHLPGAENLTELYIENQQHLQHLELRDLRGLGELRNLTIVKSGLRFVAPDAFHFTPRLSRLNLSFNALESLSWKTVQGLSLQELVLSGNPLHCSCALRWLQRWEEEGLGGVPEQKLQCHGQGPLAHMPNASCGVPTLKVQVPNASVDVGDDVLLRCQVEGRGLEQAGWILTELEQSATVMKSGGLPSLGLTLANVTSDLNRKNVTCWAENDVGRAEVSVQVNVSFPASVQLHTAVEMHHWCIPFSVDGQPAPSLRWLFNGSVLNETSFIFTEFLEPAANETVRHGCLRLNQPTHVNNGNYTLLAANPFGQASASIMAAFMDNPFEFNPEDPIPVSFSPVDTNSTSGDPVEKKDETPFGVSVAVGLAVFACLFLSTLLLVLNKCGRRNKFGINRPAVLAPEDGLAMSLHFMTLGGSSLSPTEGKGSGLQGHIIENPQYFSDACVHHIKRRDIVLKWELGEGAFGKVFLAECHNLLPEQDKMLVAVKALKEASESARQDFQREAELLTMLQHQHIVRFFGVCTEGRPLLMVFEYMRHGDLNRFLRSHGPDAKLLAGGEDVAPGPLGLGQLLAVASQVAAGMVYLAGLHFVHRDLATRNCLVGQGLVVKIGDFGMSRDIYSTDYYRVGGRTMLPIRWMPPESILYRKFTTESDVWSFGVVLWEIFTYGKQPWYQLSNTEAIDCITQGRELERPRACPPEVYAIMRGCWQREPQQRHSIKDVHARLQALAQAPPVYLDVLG

[11] = molecular target: TrkA in rat brain, dorsal root ganglia and skin tissue (rat) (UniProt P35739); assay: cell-based or functional assay
Sequence of TrkA in rat brain, dorsal root ganglia and skin tissue (rat) (P35739 33-799): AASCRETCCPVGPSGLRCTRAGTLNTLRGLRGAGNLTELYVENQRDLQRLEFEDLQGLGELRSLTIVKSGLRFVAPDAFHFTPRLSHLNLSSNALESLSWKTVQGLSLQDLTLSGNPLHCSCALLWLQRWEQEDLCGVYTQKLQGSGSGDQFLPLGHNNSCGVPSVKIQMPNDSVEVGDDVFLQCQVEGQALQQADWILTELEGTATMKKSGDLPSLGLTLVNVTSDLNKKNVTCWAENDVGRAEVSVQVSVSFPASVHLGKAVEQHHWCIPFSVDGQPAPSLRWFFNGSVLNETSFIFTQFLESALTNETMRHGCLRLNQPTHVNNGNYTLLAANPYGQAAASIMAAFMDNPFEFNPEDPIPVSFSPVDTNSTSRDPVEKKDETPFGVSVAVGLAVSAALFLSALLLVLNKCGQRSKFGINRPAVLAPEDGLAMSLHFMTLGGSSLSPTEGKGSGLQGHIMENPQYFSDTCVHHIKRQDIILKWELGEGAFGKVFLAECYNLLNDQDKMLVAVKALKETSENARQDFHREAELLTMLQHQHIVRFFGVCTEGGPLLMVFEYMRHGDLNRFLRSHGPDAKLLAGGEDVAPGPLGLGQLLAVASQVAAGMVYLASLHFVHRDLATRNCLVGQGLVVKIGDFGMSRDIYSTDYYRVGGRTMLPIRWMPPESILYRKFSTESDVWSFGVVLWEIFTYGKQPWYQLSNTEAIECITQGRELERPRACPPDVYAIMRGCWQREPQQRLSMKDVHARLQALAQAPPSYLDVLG

[12] = molecular target: recombinant human TrkA protein (human) (UniProt P04629); assay: NGF-blocking ELISA on coated human TrkA, 100 nM btNGF; mAb 0.02 nM
[13] = molecular target: recombinant human TrkA protein (human) (UniProt P04629); assay: NGF-blocking ELISA on coated human TrkA, 100 nM btNGF; mAb 5 nM
[14] = molecular target: recombinant human TrkA protein (human) (UniProt P04629); assay: NGF-blocking ELISA on coated human TrkA, 100 nM btNGF; mAb 0.31 (printed pM, two-fold series gives nM)

Sequence of rat TrkA receptor expressed in transfected HEK293 cells (rat) (P35739 33-799): as above
Sequence of rat β-NGF (P25427 122-241 limits assumed): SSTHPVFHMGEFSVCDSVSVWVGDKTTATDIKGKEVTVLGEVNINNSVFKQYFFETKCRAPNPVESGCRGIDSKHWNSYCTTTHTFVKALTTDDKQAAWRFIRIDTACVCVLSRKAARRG
Sequence of recombinant human TrkA protein (human) (P04629 other isoform, or with tags, fused parts or gaps limits assumed): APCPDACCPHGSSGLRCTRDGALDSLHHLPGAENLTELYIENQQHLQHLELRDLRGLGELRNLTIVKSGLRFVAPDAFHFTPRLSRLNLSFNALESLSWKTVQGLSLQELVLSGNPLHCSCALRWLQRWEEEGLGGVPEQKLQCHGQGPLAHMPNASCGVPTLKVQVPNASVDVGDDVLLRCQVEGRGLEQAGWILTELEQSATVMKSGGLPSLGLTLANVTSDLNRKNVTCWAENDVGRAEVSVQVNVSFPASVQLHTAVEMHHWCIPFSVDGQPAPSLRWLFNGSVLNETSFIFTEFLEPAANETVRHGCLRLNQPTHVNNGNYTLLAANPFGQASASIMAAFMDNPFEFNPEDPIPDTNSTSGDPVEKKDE

Absorbance 450 nm [2] | Absorbance 450 nm [3] | Absorbance 450 nm [4] | Absorbance 450 nm [5] | Absorbance 450 nm [6] | Absorbance 450 nm [7] | Absorbance 450 nm [8] | Absorbance 450 nm [9] | Absorbance 450 nm [12] | Absorbance 450 nm [13] | Absorbance 450 nm [14] | Substance | also measured
– | – | – | – | – | – | – | – | – | – | – | rat β-NGF (from UniProt P25427 122-241) (ligand) | pTrkA counts per second, 10 ug/mL NGF alone (mAb A column) (counts per second) [1]: 2.13e+06; pTrkA counts per second, 10 ug/mL NGF alone (mAb B column) (counts per second) [1]: 4.29e+06; pTrkA counts per second, 10 ug/mL NGF alone (mAb C column) (counts per second) [1]: 2.81e+06; pTrkA counts per second, 10 ug/mL NGF alone (mAb D column) (counts per second) [1]: 3.25e+06; pTrkA counts per second, 10 ug/mL NGF alone (mAb E column) (counts per second) [1]: 2.76e+06
1.13 | 1.07 | 1.11 | 1.13 | 1.12 | 1.14 | 1.15 | 1.03 | 1.13 | 1.08 | 1.14 | IgG4 isotype control antibody | pTrkA counts per second, +mAb 1 hr (1 uM), no NGF (counts per second) [10]: 28400; pTrkA counts per second, +mAb 24 hr (1 uM), no NGF (counts per second) [10]: 28700; pTrkA counts per second, NGF + mAb 1 hr (1 uM) (counts per second) [10]: 238000; pTrkA counts per second, NGF + mAb 24 hr (1 uM) (counts per second) [10]: 290000; pTrkA counts per second, DRG, NGF stimulated, 10 mg/kg SC (counts per second) [11]: 483000; pTrkA counts per second, DRG, baseline, 10 mg/kg SC (counts per second) [11]: 109000; pTrkA counts per second, brain, NGF stimulated, 10 mg/kg SC (counts per second) [11]: 507000; pTrkA counts per second, brain, baseline, 10 mg/kg SC (counts per second) [11]: 70600; pTrkA counts per second, skin, NGF stimulated, 10 mg/kg SC (counts per second) [11]: 33300; pTrkA counts per second, skin, baseline, 10 mg/kg SC (counts per second) [11]: 14500
1.14 | 1.17 | 0.97 | 1.12 | 1.13 | 1.16 | 1.1 | 1.04 | 1.14 | 1.1 | 1.19 | IgG1 isotype control antibody | –
